Data from US6602854B1, “Branched multimeric Apo A-I agonist compounds” (priority 1997, dated 2003).
Where no end group is shown, it is not given here. [ ]: non-standard residue; d: D form. Aib = CC(C)(N)C(=O)O

Test: Circular dichroism: degree of helicity (free, SUVs, micelles, TFE)
Details: for He (%) free: percent helicity of free, unbound peptide; for He (%) TFE: percent helicity of peptide-TFE solution; for He (%) mics: percent helicity of peptide-micelle complexes; for He (%) SUVs: percent helicity of peptide-SUV complexes
Protocol: Far UV circular dichroism spectra were recorded between 190 and 260 nm (in 0.5 nm or 0.2 nm increments) with a AVIV62DS spectrometer (AVIV Associates, Lakewood, N.J., USA) equipped with a thermoelectric cell holder and sample changer. The instrument was calibrated with (+)-10-camphoric acid. Between one and three scans were collected for each sample, using 10 cm, 5 cm, 1 cm and 0.1 cm path length quartz Suprasil cells, respectively, for peptide concentrations of 10^−7 M to 10^−4 M. The bandwidth was fixed at 1.5 nm and the scan speed to 1 s per wavelength step. The reported data are the mean of at least 2 or 3 independent measurements.
After background substraction, spectra were converted to molar ellipticity (θ) per residue in deg. […] dmol^−1. The peptide concentration was determined by amino acid analysis and also by absorption spectrometry on a Perkin Elmer Lambda 17 UV/Visible spectrophotometer when the peptide contained a chromophore (tryptophane, dansyl, naphtylalanine).
CD spectra were obtained with free, unbound peptide (5 μM in 5 mM phosphate buffer, pH 7.4); with peptide-SUV complexes (20:1 EPC:Chol., Ri=30 and Ri=50); with peptide-micelle complexes (1-myristoyl-2-hydroxy-sn-glycero-3-phosphatidyl choline, Ri=100); and with free, unbound peptide in the presence of 2,2,2-trifluoroethanol (TFE) (5 μM peptide, 90% vol TFE).
The SUVs were obtained by dispersing the lipids (10 mM, 20:1 EPC:Chol., Avanti Polar Lipids, Ala.) in phosphate buffer (5 mM, pH 7.4) with bubbling N2 for 5 min., followed by sonication (1.5 hr.) in a bath sonicator. The homogeneity of the preparation was checked by FPLC.
The micelles were obtained by dispersing the lipid (6 mM 1-myristoyl-2-hydroxy-sn-glycero-3-phosphatidyl choline, Avanti Polar Lipids, AL) in phosphate buffer (5 mM, pH 7.4) with bubbling N2 for 5 min., followed by vortexing.
To obtain the peptide-SUV complexes, SUVs were added to the peptide (5 μM in 5 mM phosphate buffer, pH 7.4) at a phospholipid-peptide molar ratio (Ri) of 30 or 50.
To obtain the peptide-micelle complexes, micelles were added to the peptide (5 μM in 5 mM phosphate buffer, pH 7.4) at a Ri of 100.
All spectra were recorded at 37° C. The stability of peptide 4 (SEQ ID NO:4) as a function of temperature (both free in buffer and in micelles) was determined by recording spectra at a series of different temperatures.
The degree of helicity of peptide 4 (SEQ ID NO:4) as a function of concentration was also determined.
The degree of helicity of the peptides in the various conditions was determined from the mean residue ellipticity at 222 nm (Chen et al., 1974, Biochemistry 13:3350-3359) or by comparing the CD spectra obtained to reference spectra available on databases (16 helical reference spectra from Provencher & Glockner, 1981, Biochemistry 20:33-37; denatured protein reference spectra from Venyaminov et al., 1993, Anal. Biochem. 214:17-24) using the CONTIN curve-fitting algorithm version 2DP, CD-1 pack (Aug. 1982) (Provencher, 1982, Comput. Phys. Commun. 27:213-227, 229-242). Acceptable fit was determined using the statistical analysis methodology provided by the CONTIN algorithm.

| Substance | He (%) free [%] | He (%) TFE [%] | He (%) mics [%] | He (%) SUVs [%] | % helicity in the presence of TFE [%] | helical structure in the presence of lipids | % Helicity Free (peptide concentration 5.0 μM, free in buffer) [%] |
| --- | --- | --- | --- | --- | --- | --- | --- |
| 163 (PVLELFENLLERLWDALQKKLK) [compound 163] | 27 | 55 | 53 | – | – | – | – |
| PVLDEFREKLNEALEALKQKLK [peptide 94, reference compound] | 18 | 63 | 70 | 27 | – | – | – |
| 38 (PVLDLFRELLNE[Aib]LEAWKQKLK) [compound 38] | 25 | 49 | 49 | 21 | – | – | – |
| 209 (PVLDLFRELLNELLQKLK) [compound 209] | 54 | 62 | 71 | 67 | – | – | – |
| 162 (PVLELFENWLERLLDALQKKLK) [compound 162] | 68 | – | 83 | 81 | – | – | – |
| 146 (PVLELFENLLERLLDALQKKLK) [compound 146] | 97 | 95 | 100 | 100 | – | – | – |
| 39 (PVLDLFRELLEELLKALKKKLK) [compound 39] | 66 | 72 | 69 | 68 | – | – | – |
| PVLDFFRELLNEXLEALKQKLK (PVLDFFRELLNE[Aib]LEALKQKLK) [peptide 25] | 46 | 93 | 82 | – | – | – | – |
| 210 (PVLDLFRELLEELKQKLK) [compound 210] | 20 | 53 | 63 | 37 | – | – | – |
| PVLDLFRELLNELWEALKQKLK [peptide 28] | 82 | 81 | 98 | 90 | – | – | – |
| 215 (Ac-PVLDLFRELLEEWKQKLK-NH2) [compound 215] | 28 | 68 | 63 | 53 | – | – | – |
| 41 (PVLDLWRELLNE[Aib]LEALKQKLK) [compound 41] | 53 | 69 | 73 | 85 | – | – | – |
| 51 (PVLDLFWELLNE[Aib]LEALKQKLK) [compound 51] | 63 | 73 | 82 | 81 | – | – | – |
| DWLKAFYDKVFEKFKEFF [peptide 245, reference compound] | 38 | – | 77 | 70 | – | – | – |
| 50 (PVLDLFRELLWE[Aib]LEALKQKLK) [compound 50] | 68 | 76 | 84 | 89 | – | – | – |
| 217 (PVLDLFRELLELLKQKLK) [compound 217] | 52 | 70 | 78 | 76 | – | – | – |
| 105 (PAADAFREAANEAAEAAKQKAK) [compound 105] | 29 | 65 | 28 | 32 | – | – | – |
| EWLKAFYEKVLEKLKELF* [peptide 238, reference compound] | 49 | 58 | 72 | 60 | – | – | – |
| 37 (PVLDLFREWLNELLEALKQKLK) [compound 37] | 65 | 73 | 75 | 76 | – | – | – |
| 108 (PVLDLFRWLLNE[Aib]LEALKQKLK) [compound 108] | 28 | 54 | 55 | – | – | – | – |
| 42 (PVLDEFREKLNE[Aib]WEALKQKLK) [compound 42] | 15 | 76 | 74 | 27 | – | – | – |
| DWFKAFYDKVAEKFKEAF [peptide 243, reference compound] | 10 | – | 64 | 50 | – | – | – |

| Substance | He (%) free [%] | He (%) TFE [%] | He (%) mics [%] | He (%) SUVs [%] | % helicity in the presence of TFE [%] | helical structure in the presence of lipids | % Helicity Free (peptide concentration 5.0 μM, free in buffer) [%] |
| --- | --- | --- | --- | --- | --- | --- | --- |
| PVLDLFRELLNEXLEALKQKLK (PVLDLFRELLNE[Aib]LEALKQKLK) [peptide 6] | 57 | 99 | 93 | 70 | – | – | – |
| 45 (PVLDEFREKLNE[Aib]LEALKQKLK) [compound 45] | – | 86 | 84 | – | – | – | – |
| 197 (Ac-PLLDLFRELLEELKQKLK-NH2) [compound 197] | 43 | 69 | 70 | – | – | – | – |
| 164 (PVLELFENLLERLLDAWQKKLK) [compound 164] | 37 | 61 | 66 | 51 | – | – | – |
| 160 (PVLELFENLLERLLDWLQKKLK) [compound 160] | 65 | 61 | 73 | 75 | – | – | – |
| 36 (PLLELLKELLQELLEALKQKLK) [compound 36] | 95 | 95 | 100 | – | – | – | – |
| 67 (VLDLFRELLNELLEALKQKLK) [compound 67] | 81 | 94 | 90 | 84 | – | – | – |
| 66 (PVLDLFRNLLEELLEALQKKLK) [compound 66] | 64 | 70 | 82 | 66 | – | – | – |
| 193 (Ac-PVLDLFRELLEELKQKLK-NH2) [compound 193] | 34 | 87 | 88 | 87 | – | – | – |
| 149 (PVLELFENLWERLLDALQKKLK) [compound 149] | 28 | 47 | 54 | – | – | – | – |
| 192 (Ac-PVLDLFKELLEELKQKLK-NH2) [compound 192] | 36 | 56 | – | – | – | – | – |
| 70 (PVLDEFRELLYE[Aib]LEALKQKLK) [compound 70] | 27 | 66 | 78 | 33 | – | – | – |
| 91 (PVLDEFRELLNE[Aib]LEALKQKLK) [compound 91] | 43 | 100 | 100 | – | – | – | – |
| 220 (PVLDLFRELLEELQKKLK) [compound 220] | 27 | 64 | 64 | 54 | – | – | – |
| 49 (PVLDLFRNLLEKLLEALEQKLK) [compound 49] | 57 | 57 | 65 | 52 | – | – | – |
| 54 (PVLDLFRELLNEWLEALKQKLK) [compound 54] | 76 | 78 | 71 | 84 | – | – | – |
| 76 (PVLDEFRELLFE[Aib]LEALKQKLK) [compound 76] | 41 | 66 | 88 | – | – | – | – |
| 46 (PVLDLFREKLNE[Aib]LEALKQKLK) [compound 46] | 30 | 85 | 86 | 58 | – | – | – |
| PVLDLFRELLNEGLEALKQKLK [peptide 8] | 20 | 93 | 90 | 61 | 93 | 61-93% | 20 |
| 199 (Ac-PVLDLFRELWEELKQKLK-NH2) [compound 199] | 35 | 79 | 77 | 80 | – | – | – |
| 194 (Ac-PVLELFRELLEELKQKLK-NH2) [compound 194] | 38 | 93 | 93 | – | – | – | – |
| 85 (PLDLFRELLNELLEALKQKLK) [compound 85] | 58 | 69 | 61 | 64 | – | – | – |
